The results in this text go back to patent publication EP4682164A1 (Curogen Technology Co., Ltd., dated 2026).

Broadly, the EC50 is the concentration needed to bring the measured effect to its halfway point. Low values mean a more potent agent, high ones a less potent agent.

Holding throughout (assay): ELISA as in Example 8, cytokine coated on plate
The target of assay [1] is T1, human IL-17F (IL-17FF homodimer) (human, UniProt Q96PD4 31-163).
T1 construct: also called hIL-17F; hIL-17FF
T1 sequence (looked up): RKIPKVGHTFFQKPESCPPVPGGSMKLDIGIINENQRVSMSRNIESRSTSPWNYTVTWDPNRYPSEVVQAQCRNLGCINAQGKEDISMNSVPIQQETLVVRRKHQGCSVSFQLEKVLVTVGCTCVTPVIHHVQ

In another assay the target is T2, murine TNFα (mouse, UniProt P06804 80-235).
T2 construct: also called mTNFα; mouse TNFα
T2 sequence (looked up): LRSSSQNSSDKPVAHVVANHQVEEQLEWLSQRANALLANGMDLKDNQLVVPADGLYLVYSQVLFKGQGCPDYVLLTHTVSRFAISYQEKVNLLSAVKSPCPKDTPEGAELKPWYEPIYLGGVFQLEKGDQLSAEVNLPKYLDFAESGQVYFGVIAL

Assay [2] has as its target T3, human IL-17A (IL-17AA homodimer) (human, UniProt Q16552 20-155, limits assumed).
T3 construct: also called hIL-17A; hIL-17AA

T3 sequence (Q16552 20-155 limits assumed): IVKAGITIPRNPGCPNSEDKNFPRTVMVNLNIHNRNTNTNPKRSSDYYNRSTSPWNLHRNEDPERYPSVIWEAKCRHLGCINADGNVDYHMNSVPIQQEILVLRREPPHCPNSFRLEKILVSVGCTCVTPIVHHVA

B1: IL-17RA/RC-Fc-mTNFR2 (T1-mT4-35) (Fc fusion)
chain: LRLLDHRAPVCSQPGLNCTVKNSDCLDDSWIHPRNLTPSSPKDLQIQLHFAHTQQGDLVPVAHIEWTLQTDASILYLEGAELSVLQLDTNERLCVRFEFLSKLRHHHRRWRFTFSHFVVDPGQEYEVTVHHLPKPIPDGDPNHQSKNFLVPDCEHPRMKVTTPCMSSALPWLNVSADGDNVHLVLNVSEEQHFGLSLYWNQVQGPPKPRWHKNLTGPQIITLNHTDLVPCLCIQVWPLEPDSVRTNICPFREDPRAHQNLWQAARLRLLTLQSWLLDAPCSLPAEAALCWRAPGGDPCQPLVPPLSWENVTVDKVLEFPLLKGHPNLCVQVNSSEKLQLQECLWADSLGPLKDDVLLLETRGPQDNRSLCALEPSGCTSLPSKASTRAARLGEYLLQDLQSGQCLQLWDDDLGALWACPMDKYIHKTGIEGRMDRNTGRGGEEKKKEKEKEEQEERETKTPECPSHTQPLGVFLFPPKPKDTLMISRTPEVTCVVVDVSQEDPEVQFNWYVDGVEVHNAKTKPREEQFNSTYRVVSVLTVLHQDWLNGKEYKCKVSNKGLPSSIEKTISKAKGQPREPQVYTLPPSQEEMTKNQVSLTCLVKGFYPSDIAVEWESNGQPENNYKTTPPVLDSDGSFFLYSRLTVDKSRWQEGNVFSCSVMHEALHNHYTQKSLSLSLGKGGGGSGGGGSGGGGSLEVPAQVVLTPYKPEPGYECQISQEYYDRKAQMCCAKCPPGQYVKHFCNKTSDTVCADCEASMYTQVWNQFRTCLSCSSSCTTDQVEIRACTKQQNRVCACEAGRYCALKTHSGSCRQCMRLSKCGPGFGVASSRAPNGNVLCKACAPGTFSDTTSSTDVCRPHRICSILAIPGNASTDAVCAPESPTLSAIPRTLYVSQPEPTRSQPLDQEPGPSQTPSILTSLGSTPIIEQSTKGG
notes: The hTNFR2 ECD is replaced by the mouse TNFR2 ECD; also called hT1-mT4-35; T1-T4-35
As to B1, the EC50 in assay [1] was found to be 0.0907 µg/mL; in the assay with murine TNFα it was 0.071 µg/mL; in assay [2], 0.0803 µg/mL.
